# Paper PMC11183095 (2024)
# B1: Recombinant GST-PKM2 (enzyme)
# chain: not shown
# Molecular target: Recombinant His-PGAM1 (human, UniProt P18669 1-254)
# Assay: BLI
# Chain of Recombinant His-PGAM1 (P18669 whole entry): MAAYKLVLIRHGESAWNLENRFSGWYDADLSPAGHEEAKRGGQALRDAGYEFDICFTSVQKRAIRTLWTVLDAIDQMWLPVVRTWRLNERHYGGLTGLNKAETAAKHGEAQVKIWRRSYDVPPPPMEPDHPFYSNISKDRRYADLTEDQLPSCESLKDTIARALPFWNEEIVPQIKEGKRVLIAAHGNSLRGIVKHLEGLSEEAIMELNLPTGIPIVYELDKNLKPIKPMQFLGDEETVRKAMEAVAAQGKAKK
binder,measurement,value
B1,Kd,2.24 µM
